According to article PMC3485183:

Experiments:
[1] = target: HA-tagged RCAN1-3KR mutant (human); experiment: co-IP; HEK293 cells co-transfected with Flag-calcineurin and HA-tagged wild-type RCAN1 or RCAN1-3KR; IP with HA antibody, blot with Flag antibody
Flag-calcineurin = Flag-calcineurin (UniProt Q08209)
[2] = target: HA-tagged wild-type calcineurin A (UniProt Q08209); experiment: co-IP; HEK293 cells co-transfected with HA-calcineurin and Myc-RCAN1, without or with T7-NEDD8, NEDD8-ΔGG, or after NEDD8 or control siRNA (60 nM); lysis in 1% NP40 buffer; IP with HA antibody, blot with Myc antibody

Myc-RCAN1, sequence (P53805 whole entry): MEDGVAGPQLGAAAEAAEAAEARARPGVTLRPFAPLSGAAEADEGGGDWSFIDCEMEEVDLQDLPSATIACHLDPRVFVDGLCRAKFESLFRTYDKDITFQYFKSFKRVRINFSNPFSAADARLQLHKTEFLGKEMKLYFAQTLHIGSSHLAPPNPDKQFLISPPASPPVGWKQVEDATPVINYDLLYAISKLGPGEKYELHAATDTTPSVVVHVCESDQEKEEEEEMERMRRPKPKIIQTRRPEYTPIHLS

Flag-calcineurin (from UniProt Q08209 1-521) (enzyme)
reduction of binding against wild-type RCAN1 [1]: 40%

HA-tagged human wild-type RCAN1 (RCAN1-1S) (natural protein)
NFAT-luciferase reporter activity in HEK293 cells treated with ionomycin, inhibition against reporter alone (Flag-calcineurin): > 60%

Myc-RCAN1 (natural protein)
increase of binding with co-expressed wild-type NEDD8, against no NEDD8 [2]: 30%
